In PMC12622545, “An Allele of Glutamate Formiminotransferase Triggers 5‐Methyl‐Tetrahydrofolate‐to‐MeFox Conversion and Facilitates Folate Biofortification in Maize” (Advanced Science, 2025):

T1: SbGFT (Sorghum bicolor, UniProt C5WU82)
T1 construct: gene SORBI_3001G181300; synthetic gene, C-terminal 6xHis tag, E. coli BL21(DE3); monomer; 317 residues (apo crystal: A6-D317, C260S/C314S)
T1 sequence (C5WU82 1-317): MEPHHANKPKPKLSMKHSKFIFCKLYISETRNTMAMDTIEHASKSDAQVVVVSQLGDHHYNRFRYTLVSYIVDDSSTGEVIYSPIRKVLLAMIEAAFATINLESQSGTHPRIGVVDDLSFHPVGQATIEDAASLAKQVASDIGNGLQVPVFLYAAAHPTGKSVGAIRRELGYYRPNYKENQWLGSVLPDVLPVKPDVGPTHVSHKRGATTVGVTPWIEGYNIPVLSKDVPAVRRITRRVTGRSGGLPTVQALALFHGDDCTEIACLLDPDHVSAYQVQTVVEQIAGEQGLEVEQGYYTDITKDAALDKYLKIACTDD


Assays:
Assay in all cases: LC-MS of MeFox formation, initial rates, Michaelis-Menten fit
Settings in all cases: 50 mM sodium phosphate pH 7.0, 10 mM beta-mercaptoethanol, 30 °C, 0.5 µM protein
[1] = target: T1, SbGFT; type: biochemical
[2] = substrate: CN1c2c(nc(N)[nH]c2=O)NC[C@@H]1CNc1ccc(C(=O)N[C@@H](CCC(=O)O)C(=O)O)cc1; type: biochemical, Zea mays
[3] = substrate: CN1c2c(nc(N)[nH]c2=O)NC[C@@H]1CNc1ccc(C(=O)N[C@@H](CCC(=O)O)C(=O)O)cc1; type: biochemical, Zea mays; remark: listed apart in the source
From the text: LC-MS of MeFox formation, initial rates, Michaelis-Menten fit on ZmGFT-Qi319 | reduced approximately by sixfold for the mutant ZmGFT‐Qi319^G232N

Row | Molecule | K m [1] | Km [2] | kcat [2] | kcat/Km [2] | Km [3] | kcat [3] | kcat/Km [3]
1 | CN1c2c(nc(N)[nH]c2=O)NC[C@@H]1CNc1ccc(C(=O)N[C@@H](CCC(=O)O)C(=O)O)cc1 [5-M-THF] | Converting analysis of wild‐type SbGFT and its mutant SbGFT^G219N | – | – | – | – | – | –
2 | ZmGFT-B73 (Zea mays) (protein, C-terminal 10xHis tag, modified pFastBac1, Sf-9 insect cells; monomer; annotated 326 residues; Asn228) MEPHHANKPRPKLSATKHSKFISCKLYISESRNATAVDAVERASKSDPQVVVVSQFGDHHYNRFRYTLVSYIVVVDGGGSSAAGEATVVHSPIRKVLLAMIEAAFSSIDLESQSGAHPRIGVVDDLSFHPVGQATIEDAASLARQVASDIACIAAVPVFLYAAAHPAGKSVGAVRRELGYYRPNYRGNQWSGSVLPNVLPVKPDVGPAHVVSHKRGATTVGVTPWIENYNVPVLCKDVATVRRITRGVTGRSGGLPTVQALALFHGDDCTEIACLLDPDHASAYQVQTVVEQIAGDQGLEVEQGYYTDITKDEALDKYLKIACADD | – | 3108.0 ± 2675.5 µM | 0.0783 ± 0.055 s⁻¹ | 25.2 M⁻¹ s⁻¹ | – | – | –
3 | ZmGFT-B73 (Zea mays; N228G) (protein, C-terminal 10xHis tag, modified pFastBac1, Sf-9 insect cells; monomer; annotated 326 residues; Asn228) MEPHHANKPRPKLSATKHSKFISCKLYISESRNATAVDAVERASKSDPQVVVVSQFGDHHYNRFRYTLVSYIVVVDGGGSSAAGEATVVHSPIRKVLLAMIEAAFSSIDLESQSGAHPRIGVVDDLSFHPVGQATIEDAASLARQVASDIACIAAVPVFLYAAAHPAGKSVGAVRRELGYYRPNYRGNQWSGSVLPNVLPVKPDVGPAHVVSHKRGATTVGVTPWIEGYNVPVLCKDVATVRRITRGVTGRSGGLPTVQALALFHGDDCTEIACLLDPDHASAYQVQTVVEQIAGDQGLEVEQGYYTDITKDEALDKYLKIACADD | – | 888.0 ± 490.3 µM | 0.09 ± 0.0233 s⁻¹ | 101 M⁻¹ s⁻¹ | – | – | –
4 | ZmGFT-Qi319 (Zea mays) (protein, natural allele; C-terminal 10xHis tag, modified pFastBac1, Sf-9 insect cells; monomer) MEPHHANKPKPRPKLSAKHSKFISCKLYISESRNATAVDAVERASKSDPQVVVVSQFGDHHYNRFRYTLVSYIVVDDGGGGGSSAAGEATVVVHSPIRKVLLAMIEAAFSSIDLESQSGAHPRMGVVDDLSFHPVGQATVEDAASLARQVASDIACIAAVPVFLYAAAHPAGKSVGAVRRELGYYRPNYRGNQWSGSVLPDVLPVKPDVGPAHVVSHKRGATTVGVTPWIEGYNVPVLCKDVATVRRITRGVTGRSGGLPTVQALALFHGDDCTEIACLLDPDHASAYQVQTVVEQIAGDQGLEVEQGYYTDITKDEALDKYLKIACADD | – | 153.1 ± 38.2 µM | 0.0317 ± 0.00167 s⁻¹ | 207 M⁻¹ s⁻¹ | – | – | –
5 | ZmGFT-Qi319 (Zea mays; G232N) (protein, natural allele; C-terminal 10xHis tag, modified pFastBac1, Sf-9 insect cells; monomer) MEPHHANKPKPRPKLSAKHSKFISCKLYISESRNATAVDAVERASKSDPQVVVVSQFGDHHYNRFRYTLVSYIVVDDGGGGGSSAAGEATVVVHSPIRKVLLAMIEAAFSSIDLESQSGAHPRMGVVDDLSFHPVGQATVEDAASLARQVASDIACIAAVPVFLYAAAHPAGKSVGAVRRELGYYRPNYRGNQWSGSVLPDVLPVKPDVGPAHVVSHKRGATTVGVTPWIENYNVPVLCKDVATVRRITRGVTGRSGGLPTVQALALFHGDDCTEIACLLDPDHASAYQVQTVVEQIAGDQGLEVEQGYYTDITKDEALDKYLKIACADD | – | – | – | – | 2209.0 ± 1046.0 µM | 0.075 ± 0.0533 s⁻¹ | 34 M⁻¹ s⁻¹
